Source: patent publication US20130045895A1 (published 2013)
Changes are numbered by the printed parent chain. In names and notes the source's numbering stands.

Assays:
[1] = target: Protein L (Peptostreptococcus magnus); assay: BIAcore 3000, over Protein L (~500-700 RU)
[2] = target: Protein L (Peptostreptococcus magnus); assay: BIAcore 3000, over Protein L; statistic over the plates analysed
[3] = target: T1, Human Serum Albumin (human, UniProt P02768 25-609); assay: BIAcore, supernatant over immobilised HSA (6036 RU);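 also: expressed culture supernatants of mutant clones diluted 1:1 in HBS-EP buffer and screened for binding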
T1 construct: also called HSA; antigen
T1 sequence (P02768 25-609 limits assumed): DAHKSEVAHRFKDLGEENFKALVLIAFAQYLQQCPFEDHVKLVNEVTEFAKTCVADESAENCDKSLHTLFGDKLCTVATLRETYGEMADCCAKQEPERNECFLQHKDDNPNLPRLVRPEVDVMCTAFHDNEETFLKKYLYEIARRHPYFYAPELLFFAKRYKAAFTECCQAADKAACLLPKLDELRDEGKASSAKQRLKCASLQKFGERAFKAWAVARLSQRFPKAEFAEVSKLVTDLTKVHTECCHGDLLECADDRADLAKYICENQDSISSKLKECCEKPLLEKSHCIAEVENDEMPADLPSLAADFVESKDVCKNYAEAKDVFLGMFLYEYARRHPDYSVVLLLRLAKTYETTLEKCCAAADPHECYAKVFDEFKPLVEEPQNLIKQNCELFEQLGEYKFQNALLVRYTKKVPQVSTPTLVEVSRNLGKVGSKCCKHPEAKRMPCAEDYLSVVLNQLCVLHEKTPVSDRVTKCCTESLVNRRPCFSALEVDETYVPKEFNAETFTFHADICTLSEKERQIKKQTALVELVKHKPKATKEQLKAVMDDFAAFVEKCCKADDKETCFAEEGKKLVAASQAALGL
Procedure: Screening of expressed supernatants for Protein L and HSA binding: Mutant clones were picked into a 96 well plate format and expressed in 1 mL 2×TY 0.1 mg/ml carbenicillin supplemented with OnEx solutions 1, 2 and 3 according to the manufacturer's instructions (Novagen). Cultures were grown at 30° C. for 3 days at 950 rpm high humidity in an InforsHT shaker. Cells were pelleted by centrifugation (4.5 k in a bench top Sorvall centrifuge for 30 mins) and 75 μL of the supernatant added to an equal volume of HBS-EP buffer (GE Healthcare).

[4] = target: the molecule itself; assay: analytical ultracentrifugation (sedimentation equilibrium), self-association
Procedure: In the present examples, three 6-channel equilibrium cells were loaded with 9 protein solutions made by diluting the stock sample 10-, 20-, 30-, 150-, 200-, 300-, 400-, 500, and 600-fold (a range from 540 to 90 μg/ml). Each sample channel was loaded with 120 μl of protein solution and the reference channels were loaded with 125 μl of Dulbecco's phosphate-buffered saline (DPBS) dilution buffer. These cells were then loaded into an AN90-TI rotor and placed into a Beckman Coulter ProteomeLab XL-1 analytical centrifuge equipped with both absorbance and Rayleigh interference (refractive index detection) optical systems. Absorbance scans for the three highest concentrations were recorded at 280 nm; for the lowest concentrations 230 nm was used. The temperature was set at 25° C.

[5] = target: T1, Human Serum Albumin; assay: SPR (Biacore 2000), purified dAb over HSA (559 RU) on CM5 chip
Source text: (§1) The data analysis followed routine and established algorithms using the instrument's software (Bia-evaluation 3.2 RC1).

[6] = target: T1, Human Serum Albumin; assay: as above; remark: listed apart in the source
Source text: as §1

[7] = target: T1, Human Serum Albumin; assay: SPR (Biacore 2000), purified dAb over HSA (559 RU) on CM5 chip; Table 13 cell, backed by its kon and koff
Source text: as §1

[8] = target: T1, Human Serum Albumin; assay: see Table 2
[9] = target: T1, Human Serum Albumin; assay: BIAcore, purified protein over HSA (559 RU)

B1: DOM4-130-54 (protein)
VL: DIQMTQSPSSLSASVGDRVTITCRASQDIYLNLDWYQQKPGKAPKLLINFGSELQSGVPSRFSGSGYGTDFTLTISSLQPEDFATYYCQPSFYFPYTFGQGTKVEIKRA
% B5 (proportion of dAb bound at 5 min of dissociation) [1]: 4%
% B5, 25% Percentile [2]: 3.9%
% B5, 75% Percentile [2]: 4%
% B5, Maximum [2]: 4%
% B5, Mean [2]: 3.9%
% B5, Median [2]: 4%
% B5, Minimum [2]: 3.6%

B2: DOM7h-14 (other)
VL: DIQMTQSPSSLSASVGDRVTITCRASQWIGSQLSWYQQKPGKAPKLLIMWRSSLQSGVPSRFSGSGSGTDFTLTISSLQPEDFATYYCAQGAALPRTFGQGTKVEIKR
notes: also called 7h14 wt
binding result [3]: binds
Kd [4]: 250000 nM

B3: DOM7h-14-10 A43I (other, name in Kabat numbering)
VL: B2 VL with A43I, A92L, A93R, L94H, R96K
notes: also called A43I mutant of DOM7h-14-10
fold improvement in antigen affinity over DOM7h-14-10 [5]: 2 fold
Kd [6]: 13.1 nM
koff [6]: 0.012 s⁻¹
kon [6]: 890000 M⁻¹ s⁻¹

B4: DOM7h-11-15 (other)
VL: DIQMTQSPSSLSASVGDRVTITCRASRPIGTMLSWYQQKPGKAPKLLILAFSRLQSGVPSRFSGSGSGTDFTLTISSLQPEDFATYYCAQAGTHPTTFGQGTKVEIKR
notes: also called DOM7h-11-15 parent
koff [6]: 0.0045 s⁻¹
kon [6]: 12000 M⁻¹ s⁻¹
Kd [7]: 384 nM

B5: DOM7h-11-15 A43I (other, name in Kabat numbering)
VL: B4 VL with A43I
notes: also called DOM7h-11-15 A43I mutant
fold improvement in antigen affinity over the DOM7h-11-15 parent [5]: 1000 fold
Kd [6]: 6.4 nM
koff [6]: 0.0049 s⁻¹
kon [6]: 770000 M⁻¹ s⁻¹

B6: DOM7h-8 (other)
VL: DIQMTQSPSSLSASVGDRVTITCRASQSISSYLNWYQQKPGKAPKLLIYRNSPLQSGVPSRFSGSGSGTDFTLTISSLQPEDFATYYCQQTYRVPPTFGQGTKVEIKR
notes: also called DOM7h-8 parent molecule; SD ctrl
binding result [8]: binds
Kd [4]: 120 nM

B7: DOM7h-8 Y87L (other)
VL: B6 VL with Y87L
binding result [9]: binds

B8: DOM7h-8 L46D (other)
VL: B6 VL with L46D
binding result [9]: binds
